Laboratory results reported in PMC12803513.

Biological target: microtubules (polymers of alpha- and beta-tubulin) of Drosophila head lysate (D. melanogaster (endogenous in adult fly heads)) (UniProt P06603)
Assay: co-sedimentation; in vivo microtubule-binding assay: 50 wild-type fly heads homogenised in Buffer-C+ (50 mM HEPES pH 7.1, 1.0 mM MgCl2, 1.0 mM EGTA, protease and phosphatase inhibitors) with 20 uM Taxol; 100,000 x g for 30 min through a 50% sucrose cushion; pellet blotted with anti-Pfdn5 and anti-ace-tubulin

Sequence of UniProt P06603 (P06603 whole entry, chain 1 of 2): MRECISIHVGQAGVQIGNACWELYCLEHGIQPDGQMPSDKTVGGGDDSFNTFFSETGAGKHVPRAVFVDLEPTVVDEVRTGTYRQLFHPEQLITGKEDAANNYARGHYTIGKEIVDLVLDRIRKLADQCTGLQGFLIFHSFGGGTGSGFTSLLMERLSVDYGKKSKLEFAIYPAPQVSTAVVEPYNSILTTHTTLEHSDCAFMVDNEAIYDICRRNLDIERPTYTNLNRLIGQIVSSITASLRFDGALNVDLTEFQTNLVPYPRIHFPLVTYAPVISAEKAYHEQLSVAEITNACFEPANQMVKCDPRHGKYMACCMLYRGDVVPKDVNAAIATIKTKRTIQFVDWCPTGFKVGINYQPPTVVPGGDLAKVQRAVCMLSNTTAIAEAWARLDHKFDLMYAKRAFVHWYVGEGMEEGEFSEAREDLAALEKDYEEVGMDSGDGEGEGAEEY
Sequence of UniProt P06603 (Q24560 whole entry, chain 2 of 2, further chain): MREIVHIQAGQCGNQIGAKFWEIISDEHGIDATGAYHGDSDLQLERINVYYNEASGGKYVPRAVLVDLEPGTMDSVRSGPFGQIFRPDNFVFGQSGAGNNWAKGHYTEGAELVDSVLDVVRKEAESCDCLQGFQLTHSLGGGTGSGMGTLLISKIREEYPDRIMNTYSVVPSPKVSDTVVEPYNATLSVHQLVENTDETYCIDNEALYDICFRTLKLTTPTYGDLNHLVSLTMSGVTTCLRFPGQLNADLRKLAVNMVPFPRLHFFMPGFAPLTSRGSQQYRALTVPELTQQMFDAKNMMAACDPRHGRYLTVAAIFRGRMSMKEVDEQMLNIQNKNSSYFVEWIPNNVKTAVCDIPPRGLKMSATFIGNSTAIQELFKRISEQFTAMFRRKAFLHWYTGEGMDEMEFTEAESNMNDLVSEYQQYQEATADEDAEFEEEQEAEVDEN

B1: Prefoldin 5 (natural protein)
chain: MAATPSAPAKSEMIDLTKLSPEQLIQIKQEFEQEITNVQDSLSTLHGCQAKYAGSKEALGTFQPNWENRQILVPLTSSMYVPGRVKDLNRFVIDIGTGYYIEKDLEGSKDYFKRRVEYVQEQIEKIEKIHLQKTRFYNSVMSVLEMKQAAAAKLQSQQQSQPAVTQSS
  percentage of Pfdn5 in the pellet fraction: 36.7%
